Biological target: heparan sulfate proteoglycan (HSPG) on HeLa cells
Test: cell-based or functional assay

- Alexa488 fluorescence intensity in HeLa cells (confocal microscopy, 1 µM, 6 h): 20%
B1: CT-59 (antibody, part only; not given: TMab4 heavy chain variable domain, V domains shown, part only)
VL: DIQMTQSPSSLSASVGDRVTITCKSSQSLLNSRDGKNYLAWYQQKPGKAPKLLIYWASTRESGVPSRFSGSGSGTDFTLTISSLQPEDFATYFCQQYWYWMYTFGQGTKVEIKR

Reference: patent publication US20200339681A1
